Measured values taken from FireProtDB (doi:10.1021/bi034486i).
“And” between values parts separate entries of the source, which are not always exact repeats. Equal values may be shown once.

Details: Homo sapiens; pH 7.82; 20 °C; GdnHCl; CD; sodium phosphate 50 mM; whole UniProt chain shown

B1: Thioredoxin-like protein 4A wild type, P83876 (protein)
chain: MSYMLPHLHNGWQVDQAILSEEDRVVVIRFGHDWDPTCMKMDEVLYSIAEKVKNFAVIYLVDITEVPDFNKMYELYDPCTVMFFFRNKHIMIDLGTGNNNKINWAMEDKQEMVDIIETVYRGARKGRGLVVSPKDYSTKYRY
- denaturant m value: 2.16 kcal/mol/M and 3.24 kcal/mol/M
- denaturant midpoint (higher = more stable): 3.39 M and 3.41 M
- unfolding free energy: 7.32 kcal/mol and 11.1 kcal/mol
